From publication PMC11096469

What was measured:
[1] = target: C_(γ1-3) chain (VH-deleted human IgG1 heavy chain) (human); assay: non-reducing SDS-PAGE with immunoblot; culture supernatants of HEK293 transfectants 48 h after transfection; 4-20% gels, reducing and non-reducing; probed with anti-human IgG-Fc and anti-human Cκ; covalent assembly
[2] = target: C_(γ2-3) chain (Fc fragment containing the hinge region) (human); assay: as above
[3] = target: Cκ chain (Vκ-deleted human kappa light chain) (human) (UniProt P01834); assay: non-reducing SDS-PAGE with immunoblot; culture supernatants of HEK293-BiP cells transfected with LCs alone, 48 h after transfection; reducing and non-reducing gels

C_(γ1-3) chain (VH-deleted human IgG1 heavy chain) (domain or fragment)
stoichiometry N [1]: 2

C_(γ2-3) chain (Fc fragment containing the hinge region) (domain or fragment)
stoichiometry N [2]: 2

Cκ chain (Vκ-deleted human kappa light chain) (from UniProt P01834 1-107) (domain or fragment)
stoichiometry N [3]: 2
